Laboratory results: FireProtDB (doi:10.1002/pro.5560060717)
Where “and” joins values, the source holds several entries; their conditions need not be identical. Identical values can stand only once.

B1: Gamma-crystallin B, P02526 (parent)
chain: MGKITFYEDRGFQGHCYECSSDCPNLQPYFSRCNSIRVDSGCWMLYERPNYQGHQYFLRRGDYPDYQQWMGFNDSIRSCRLIPQHTGTFRMRIYERDDFRGQMSEITDDCPSLQDRFHLTEVHSLNVLEGSWVLYEMPSYRGRQYLLRPGEYRRYLDWGAMNAKVGSLRRVMDFY

Variants of: B1
Conditions: Bos taurus; pH 2; 20 °C; Urea; Fluorescence; NaCl-HCl 100 mM; reversible: yes; structure 4GCR; whole UniProt chain shown

Variant	denaturant midpoint (higher = more stable)
F57W	1.5 M and 4.2 M
